Measurements published in publication doi:10.1101/2020.12.18.423415 (bioRxiv, 2020).

Target: receptor binding domain (RBD) of the SARS-CoV-2 S protein (SARS-CoV-2, UniProt P0DTC2)
Experiment: ELISA

B1: recombinant fragment of human surfactant protein D (rfhSP-D) (domain or fragment)
chain: PGLKGDKGIPGDKGAKGESGLPDVASLRQQVEALQGQVQHLQAAFSQYKKVELFPNGQSVGEKIFKTAGFVKPFTEAQLLCTQAGGQLASPRSAAENAALQQLVVAKNEAAFLSMTDSKTEGKFTYPTGESLVYSNWAPGEPNDDGGSEDCVEIFTNGKWNDRACGEKRLVVCEF
percent decrease of RBD-hACE-2 interaction (rfhSP-D increased 8-fold): ~25%
